Measured values: patent US20170137467A1 (CHROMOTEK, published 2017)
Changes are numbered by the printed parent chain. Square brackets hold non-standard residues; d marks the D form. GABA = NCCCC(=O)O

T1: BC2T A6F (human)
T1 construct: position 6 library (BC2TA6X), row F
T1 peptide: Ac-PDRKAFVSHWQQ-NH2

T2: BC2T R3C(Abu) (human, SMILES …)
T2 construct: position 3 library (BC2TR3X), row C(Abu) / C*
T2 peptide: Ac-PD[GABA]KAAVSHWQQ-NH2

T3: BC2T A5S (human)
T3 construct: position 5 library, row S
T3 peptide: Ac-PDRKSAVSHWQQ-NH2

T4: BC2T A5P (human)
T4 construct: position 5 library, row P
T4 peptide: Ac-PDRKPAVSHWQQ-NH2

T5: BC2T A5H (human)
T5 construct: position 5 library, row H
T5 peptide: Ac-PDRKHAVSHWQQ-NH2

T6: BC2T D2S (human)
T6 construct: position 2 library, row S
T6 peptide: Ac-PSRKAAVSHWQQ-NH2

T7: BC2T D2N (human)
T7 construct: position 2 library, row N
T7 peptide: Ac-PNRKAAVSHWQQ-NH2

T8: BC2T D2P (human)
T8 construct: position 2 library, row P
T8 peptide: Ac-PPRKAAVSHWQQ-NH2

T9: BC2T P1K (human)
T9 construct: position 1 library, row K
T9 peptide: Ac-KDRKAAVSHWQQ-NH2

T10: BC2T V7F (human)
T10 construct: position 7 library, row F
T10 peptide: Ac-PDRKAAFSHWQQ-NH2

T11: BC2T D2H (human)
T11 construct: position 2 library, row H
T11 peptide: Ac-PHRKAAVSHWQQ-NH2

T12: BC2T P1F (human)
T12 construct: position 1 library, row F
T12 peptide: Ac-FDRKAAVSHWQQ-NH2

T13: BC2T D2Y (human)
T13 construct: position 2 library, row Y
T13 peptide: Ac-PYRKAAVSHWQQ-NH2

T14: BC2T V7Y (human)
T14 construct: position 7 library, row Y
T14 peptide: Ac-PDRKAAYSHWQQ-NH2

T15: BC2T P1Q (human)
T15 construct: position 1 library, row Q
T15 peptide: Ac-QDRKAAVSHWQQ-NH2

T16: BC2T A6R (human)
T16 construct: position 6 library (BC2TA6X), row R
T16 peptide: Ac-PDRKARVSHWQQ-NH2

T17: BC2T P1N (human)
T17 construct: position 1 library, row N
T17 peptide: Ac-NDRKAAVSHWQQ-NH2

T18: BC2T K4Y (human)
T18 construct: position 4 library, row Y
T18 peptide: Ac-PDRYAAVSHWQQ-NH2

T19: BC2T A6C(Abu) (human, SMILES …)
T19 construct: position 6 library (BC2TA6X), row C(Abu) / C*
T19 peptide: Ac-PDRKA[GABA]VSHWQQ-NH2

T20: BC2T P1E (human)
T20 construct: position 1 library, row E
T20 peptide: Ac-EDRKAAVSHWQQ-NH2

T21: BC2T K4S (human)
T21 construct: position 4 library, row S
T21 peptide: Ac-PDRSAAVSHWQQ-NH2

T22: BC2T R3E (human)
T22 construct: position 3 library (BC2TR3X), row E
T22 peptide: Ac-PDEKAAVSHWQQ-NH2

B1: BC2 nanobody (BC2-Nb) (VHH)
VHH: QVQLVESGGGLVQPGGSLTLSCTASGFTLDHYDIGWFRQAPGKEREGVSCINNSDDDTYYADSVKGRFTIFMDNAKDTVYLQMNSLKPEDTAIYYCAEARGCKRGRYEYDFWGQGTQVTVSS
notes: immobilised on agarose/sepharose beads in this assay; also called BC2 nanotrap (immobilised form); not shown: C-terminal 6xHis-tag added by pHEN6 vector
B2: BC2-NbR106S (VHH)
VHH: B1 VHH with R106S
notes: immobilised on beads in this assay; not shown: C-terminal 6xHis-tag added by pHEN6 vector

Tests used:
Experiment in all cases: library pulldown, LC-MS of supernatant; ratio vs GFP-Nb control (0=captured, 1=not captured)
BC2T A6F = target: T1, BC2T A6F
Procedure, shortened: (§1)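 Unbound peptide left in supernatant after 1 h pulldown in PBS/0.01% CHAPS measured by reversed-phase LC-MS (8–30% eluent B gradient, 20 min).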

BC2T R3C(Abu) = target: T2, BC2T R3C(Abu)
Procedure, shortened: as §1

BC2T A5S = target: T3, BC2T A5S
Procedure, shortened: as §1

BC2T A5P = target: T4, BC2T A5P
Procedure, shortened: as §1

BC2T A5H = target: T5, BC2T A5H
Procedure, shortened: as §1

BC2T D2S = target: T6, BC2T D2S
Procedure, shortened: as §1

BC2T D2N = target: T7, BC2T D2N
Procedure, shortened: as §1

BC2T D2P = target: T8, BC2T D2P
Procedure, shortened: as §1

BC2T P1K = target: T9, BC2T P1K
Procedure, shortened: as §1

BC2T V7F = target: T10, BC2T V7F
Procedure, shortened: as §1

BC2T D2H = target: T11, BC2T D2H
Procedure, shortened: as §1

BC2T P1F = target: T12, BC2T P1F
Procedure, shortened: as §1

BC2T D2Y = target: T13, BC2T D2Y
Procedure, shortened: as §1

BC2T V7Y = target: T14, BC2T V7Y
Procedure, shortened: as §1

BC2T P1Q = target: T15, BC2T P1Q
Procedure, shortened: as §1

BC2T A6R = target: T16, BC2T A6R
Procedure, shortened: as §1

BC2T P1N = target: T17, BC2T P1N
Procedure, shortened: as §1

BC2T K4Y = target: T18, BC2T K4Y
Procedure, shortened: as §1

BC2T A6C(Abu) = target: T19, BC2T A6C(Abu)
Procedure, shortened: as §1

BC2T P1E = target: T20, BC2T P1E
Procedure, shortened: as §1

BC2T K4S = target: T21, BC2T K4S
Procedure, shortened: as §1

BC2T R3E = target: T22, BC2T R3E
Procedure, shortened: as §1

| Binder | ratio (BC2T A6F) | ratio (BC2T R3C(Abu)) | ratio (BC2T A5S) | ratio (BC2T A5P) | ratio (BC2T A5H) | ratio (BC2T D2S) | ratio (BC2T D2N) | ratio (BC2T D2P) | ratio (BC2T P1K) | ratio (BC2T V7F) | ratio (BC2T D2H) | ratio (BC2T P1F) | ratio (BC2T D2Y) | ratio (BC2T V7Y) | ratio (BC2T P1Q) | ratio (BC2T A6R) | ratio (BC2T P1N) | ratio (BC2T K4Y) | ratio (BC2T A6C(Abu)) | ratio (BC2T P1E) | other results |
| --- | --- | --- | --- | --- | --- | --- | --- | --- | --- | --- | --- | --- | --- | --- | --- | --- | --- | --- | --- | --- | --- |
| B1 | 1 | 0.5 | 0.1 | 0.1 | 0.2 | 0.1 | 0.2 | 0.6 | 0.3 | 0.2 | 0.1 | 0.2 | 0.1 | 0.1 | 0.6 | 1.1 | 0.6 | 0.2 | 0.1 | 0.9 | ratio (BC2T K4S): 0.3; ratio (BC2T R3E): 1 |
| B2 | 0.9 | 0.9 | 0.4 | 0.4 | 0.3 | 0.3 | 0.3 | 0.8 | 0.5 | 0.4 | 0.2 | 0.3 | 0.2 | 0.3 | 0.7 | 0.7 | 0.7 | 0.5 | 0.3 | 0.8 | ratio (BC2T K4S): 0.7; ratio (BC2T R3E): 1 |
